The data set can be described thus: amyloid nucleation score (Sup35N fusion, yeast selection) (log enrichment); library NNK3; higher = more nucleation; inactive = no reads after selection. The essentials: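 Psi-negative yeast expressed Sup35N fused to peptides of 20 random codons. They were induced 24 hours with 100 μM copper sulfate, grown 7 days at 30°C without adenine and uracil, and their plasmid inserts from input and output were Illumina-sequenced. The nucleation score is the DiMSum log enrichment of output over input reads, centred on the mode score of non-aggregating sequences. Sequences with under 100 input reads were excluded.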

± gives the uncertainty stated by the source.

Take SCVRHPIECLKWMTLTGEVV: the amyloid nucleation score entry was “inactive”.

For the substance MEINGALRYMH, the amyloid nucleation score result is “inactive”.

NMTTLVKTMEDNMDSCISGV showed an amyloid nucleation score of 1.12 ± 0.11.

As to SMYRYAKETT, the amyloid nucleation score entry was “inactive”.

Consider WSKDG, for which the amyloid nucleation score result is “inactive”.

For SCCCDFYTTRKNQRCVHRFR, the amyloid nucleation score result is “inactive”.

On to WLWTLYDG, for which the amyloid nucleation score result is “inactive”.

Consider YETYSCEFFVYRLFCLNRSH, for which the amyloid nucleation score entry was “inactive”.

On to CEFTAPVICLISLCYVGRSR, for which the amyloid nucleation score was determined as 1.09 ± 0.094.

Take CSLTCWSVVRVFQYEILRE: the amyloid nucleation score result was “inactive”.

Regarding TYPVGPGGFFWDLGCV, the amyloid nucleation score result was “inactive”.

On to YFSWLSLHVFVSGFVRIVCR, for which the amyloid nucleation score entry is “inactive”.

Turning to MNNVN, the amyloid nucleation score entry was “inactive”.

As for RSRLAGFSNYFCMKCVIAAG, the amyloid nucleation score entry was “inactive”.

DRFLLFFH: the amyloid nucleation score entry was “inactive”.

As for CFLSWWLRDLVLSSCSTYVD, the amyloid nucleation score entry is “inactive”.

As for SGFDYV, the amyloid nucleation score result was “inactive”.

SHMEWFT displayed an amyloid nucleation score of 1.92 ± 0.088.

As for CADGSSFRETPSNFTHPNIL, the amyloid nucleation score entry was “inactive”.

Turning to VVCLGTFITGDFIVVYTHYG, the amyloid nucleation score came out at 2.88 ± 0.054.

Take WRVLKADDYFFFWWASCFAY: the amyloid nucleation score result was “inactive”.

As to RLFSFAIFHENTMLGNCCTM, the amyloid nucleation score was determined as 2.44 ± 0.063.

Turning to CMLNRNFWVVYSHVGRRRL, the amyloid nucleation score entry was “inactive”.

Turning to ADVLLMRDRAFRRGSWRMAR, the amyloid nucleation score result is “inactive”.

In the case of AWVHNSVRRHSSPSPRLGGM, the amyloid nucleation score result was “inactive”.

For the substance LLERDYR, the amyloid nucleation score result was “inactive”.

With GSSVCAR, the amyloid nucleation score entry was “inactive”.

Consider LLKCYRPFSVFIYFNVLASG, for which the amyloid nucleation score result was “inactive”.

Take DEMLHGCPDRVPNLGWY: the amyloid nucleation score result is “inactive”.

LVLSWWYMMFFRFDGV: the amyloid nucleation score result was “inactive”.

As to ANDGAHFFIIQLECHAEEVR, the amyloid nucleation score was -0.303 ± 0.39.

On to GYMWGLEDNFALWTGRNNYV, for which the amyloid nucleation score result was “inactive”.

VRHGCG: the amyloid nucleation score result is “inactive”.

In the case of SWFALSLIIKTRVWT, the amyloid nucleation score result was “inactive”.

In the case of DNVSKSSIHTTLVLASFLCS, the amyloid nucleation score amounted to 1.55 ± 0.11.

The substance NMFCVPYVKVESGCIMKRGN registered an amyloid nucleation score of 1.91 ± 0.06.

Take IKVISLEAMKTYCF: the amyloid nucleation score entry was “inactive”.

Regarding YNSFSDYYSVFTQHVRDS, the amyloid nucleation score result is “inactive”.

Consider RIFFKVCNVRLSVADFSHYV, for which the amyloid nucleation score came to 1.99 ± 0.051.

With NTQNLNRVVCLGL, the amyloid nucleation score entry is “inactive”.

In turn, DIDRRQRVMHSPMKAWEEVG gave an amyloid nucleation score of -0.045 ± 0.98.

On to ISILDLSSTF, for which the amyloid nucleation score result is “inactive”.

Consider YAKCSDVY, for which the amyloid nucleation score result was “inactive”.

Substance CMSRYVDSYFNLAYRDRFLW came in with an amyloid nucleation score of 0.451 ± 0.47.

For the substance NSVDP, the amyloid nucleation score result was “inactive”.

In turn, TIYCWTQNIHDY came in with an amyloid nucleation score of 2.3 ± 0.086.

Turning to DNYMRILGLSYPGDFISNFW, the amyloid nucleation score result is “inactive”.

In the case of GVYHIQPCMRCRLHKGGSDS, the amyloid nucleation score entry was “inactive”.

In turn, FNANI yielded an amyloid nucleation score of 0.12 ± 0.34.

For SLLTDTFFIVLWTFT, the amyloid nucleation score entry is “inactive”.

Turning to VMKPNIEFGN, the amyloid nucleation score entry is “inactive”.

For the substance IPYSTHRINSILISLSWFCV, the amyloid nucleation score was found to be 0.691 ± 0.2.

As to CAYDINYLCSREWVSNSCWG, the amyloid nucleation score entry was “inactive”.

For CHYNFPVPAVKILRGQRNVA, the amyloid nucleation score result is “inactive”.

On to RIRFKRGVPSVVAHVVLR, for which the amyloid nucleation score result is “inactive”.

In the case of TRFARA, the amyloid nucleation score entry is “inactive”.

Take KAHRYVWVPSMPSNMNSHRR: the amyloid nucleation score result is “inactive”.

Consider TFYSSML, for which the amyloid nucleation score entry is “inactive”.

For the substance TFVKSLVGGFTRNLVFLAIL, the amyloid nucleation score entry is “inactive”.

As for EVSLFVTHIL, the amyloid nucleation score entry is “inactive”.

For CLSLYL, the amyloid nucleation score result was “inactive”.

As for GRIEKVVRNA, the amyloid nucleation score result was “inactive”.

Regarding KFIGFYVWVYVCHCVVIRAY, the amyloid nucleation score entry was “inactive”.

As for GHSSSNMGNVHFKFLC, the amyloid nucleation score result is “inactive”.

For the substance SHECNLCFNVL, the amyloid nucleation score result is “inactive”.

As to KMQISTKVCDMDLFCPKTIP, the amyloid nucleation score entry was “inactive”.

Regarding LIRNEGFCEKS, the amyloid nucleation score came to 0.244 ± 0.14.

Turning to KNQMVFVINY, the amyloid nucleation score is 2.68 ± 0.053.

Consider ALLCRMGRVRWPVSHEGNVC, for which the amyloid nucleation score result was “inactive”.

For SCSGAMTLWFRQPALKHIL, the amyloid nucleation score result is “inactive”.

In the case of CVAAV, the amyloid nucleation score entry is “inactive”.

Substance DIHVKNCVVCMYSG displayed an amyloid nucleation score of 2.44 ± 0.057.

As to IVLTFYIYRNSYCSAV, the amyloid nucleation score came to 0.89 ± 0.092.

Take FQESVIWKVYRNNNYRSLTV: the amyloid nucleation score entry was “inactive”.

QYLPGRTVFCMQIYDVQLYP: the amyloid nucleation score entry was “inactive”.

Turning to AGVWWVCRRGVFFALMLM, the amyloid nucleation score result is “inactive”.

On to LLFALDGFIAGWMCMWGDRF, for which the amyloid nucleation score result was “inactive”.

As to VTSIPIPR, the amyloid nucleation score entry is “inactive”.

For the substance RGQGKHNSRYFCLIT, the amyloid nucleation score entry is “inactive”.

In the case of ILFVAGIETFSALSFRWTGV, the amyloid nucleation score entry is “inactive”.

As for SIVSPIMRLFCFGLRAYKAV, the amyloid nucleation score result is “inactive”.

For the substance NSNSGFLVSFLWLSFWNSIS, the amyloid nucleation score result is “inactive”.

Substance ECYMVCFDSCSNIMFVLDLE registered an amyloid nucleation score of 1.92 ± 0.095.

On to VKREWSAI, for which the amyloid nucleation score entry was “inactive”.

Turning to ALFKTYHLKGMFGKNWVLVV, the amyloid nucleation score result was “inactive”.

With SGNNMRLHTTGLVASNGLGS, the amyloid nucleation score entry was “inactive”.

Consider SVRWMTGRFVGCRRNQVQFR, for which the amyloid nucleation score stood at 0.505 ± 0.38.

As to YILGKSKSPFLLKCAVKI, the amyloid nucleation score result was “inactive”.

Consider RFLLVVMF, for which the amyloid nucleation score entry is “inactive”.

The substance GASVGFEVHCNFVVNLNVQH came in with an amyloid nucleation score of 2.18 ± 0.066.

For the substance VWVKSGKWYRQLIRKYVGSS, the amyloid nucleation score entry is “inactive”.

SFYWMHMSAMIEYDPFTYGA: the amyloid nucleation score entry is “inactive”.

As for TCLLIYFMFHGEVMPLWSI, the amyloid nucleation score result was “inactive”.

For QDFKCRRGNY, the amyloid nucleation score entry is “inactive”.

On to WLVFKSVFVDRM, for which the amyloid nucleation score result was “inactive”.

Take QSLLSVGEWNAQHMSLSSGR: the amyloid nucleation score entry is “inactive”.

On to AVAHA, for which the amyloid nucleation score result is “inactive”.

For SPYPITGLFWCFINWSHKVM, the amyloid nucleation score entry was “inactive”.

FLYDVFPSPGLMMVLWFGLC: the amyloid nucleation score result is “inactive”.

Take SCLCVSW: the amyloid nucleation score result was “inactive”.

Consider DWTWMMS, for which the amyloid nucleation score entry is “inactive”.

Take SFICVSSDLCARARVGDSSR: the amyloid nucleation score entry was “inactive”.

CQLRGEFDSVAVNNVCIAML: the amyloid nucleation score result is “inactive”.

VPISHLFSLVLVRPRMTSRY: the amyloid nucleation score result was “inactive”.

In the case of ITWTRGDVGQTHNSAMLSHT, the amyloid nucleation score result was “inactive”.

Regarding SNSFLFYFEYSGVKLRRLGL, the amyloid nucleation score result was “inactive”.

Consider CTVLKYFLRYRRSHDL, for which the amyloid nucleation score result was “inactive”.

The substance SSGHAGGYINYSCTFSAYRM returned an amyloid nucleation score of 0.786 ± 0.19.

For ILQKSDVSII, the amyloid nucleation score entry is “inactive”.

In the case of KISAIVSYPAYVIIVHRLWH, the amyloid nucleation score entry was “inactive”.

On to IRLVPWFW, for which the amyloid nucleation score result was “inactive”.

Regarding HPTFHSHDRGR, the amyloid nucleation score entry is “inactive”.

Turning to IAAPRGMTDSRVVMRCLHVN, the amyloid nucleation score result is “inactive”.

Take AVITSRVRWSLRNRRANISM: the amyloid nucleation score result is “inactive”.

Regarding CSGIIRNMLWGV, the amyloid nucleation score result was “inactive”.

Consider SNDHKITD, for which the amyloid nucleation score entry is “inactive”.

Regarding LPSYLESYYCVRVISGFYLS, the amyloid nucleation score result was “inactive”.

Regarding SNFTTPLHE, the amyloid nucleation score result is “inactive”.

The substance QYLTRVHSPEDGTMA had an amyloid nucleation score of 0.125 ± 0.75.

In the case of LHYLLTLARKSEWHYLLDIR, the amyloid nucleation score entry is “inactive”.

Consider YVIMAFLAV, for which the amyloid nucleation score result is “inactive”.

With YRKNLRHSLCRNWLYMDCHV, the amyloid nucleation score result was “inactive”.

In the case of HDYYLLLLTATL, the amyloid nucleation score entry was “inactive”.

Regarding DYVAGN, the amyloid nucleation score result was “inactive”.

TAESEMNQCVLSRYFSSAIR: the amyloid nucleation score entry is “inactive”.

CYYTKVNVSS had an amyloid nucleation score of 0.021 ± 0.26.

For the substance LKAKCVIMSLPLDMGYHGKR, the amyloid nucleation score result was “inactive”.

Take KDQSRSARSST: the amyloid nucleation score result was “inactive”.

In the case of DKMIGWGDWSSLY, the amyloid nucleation score entry was “inactive”.

Take HGNRVFYFELHSYPVLDSAM: the amyloid nucleation score was determined as 0.984 ± 0.17.

On to VEGRMLSYLHVIYMYSGWRK, for which the amyloid nucleation score entry is “inactive”.

Take IRGVECNRLGIYLLCVTHSM: the amyloid nucleation score is -0.624 ± 0.8.

Take CLVSTGYHVRCVIVFMTTQG: the amyloid nucleation score entry was “inactive”.

As for WGWRA, the amyloid nucleation score was -0.215 ± 0.57.

Source of the values: the supplement of paper PMC12042874.
